In general, EC50 refers to the concentration giving half of the maximal effect. A word on the IC50: it is the concentration that gives 50% inhibition.

These results are taken from patent US20240182911A1 (University of California, published 2024).

For assay [1], the target named is T1, angiotensin II type 1 receptor (AT1R) with FLAG peptide fused to its N-terminus (human, UniProt P30556 2-359).
T1 construct: also called AT1R-angiotensin II complex
T1 sequence: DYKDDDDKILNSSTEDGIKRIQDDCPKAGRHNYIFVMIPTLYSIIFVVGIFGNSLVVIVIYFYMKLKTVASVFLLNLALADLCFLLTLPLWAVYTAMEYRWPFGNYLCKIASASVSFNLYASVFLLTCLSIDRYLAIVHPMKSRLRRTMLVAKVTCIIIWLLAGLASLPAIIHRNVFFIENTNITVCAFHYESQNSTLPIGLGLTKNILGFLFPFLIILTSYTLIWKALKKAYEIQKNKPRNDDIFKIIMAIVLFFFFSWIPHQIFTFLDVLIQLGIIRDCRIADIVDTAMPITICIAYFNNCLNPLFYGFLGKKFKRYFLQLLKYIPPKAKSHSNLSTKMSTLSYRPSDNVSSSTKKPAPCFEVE
Kind of assay: on-yeast binding assay: yeast-displayed nanobody, titration of AT1R-angiotensin II complex, single replicate, EC50 from curve fit.

Assay [2] concerns the target T1, angiotensin II type 1 receptor (AT1R) …. The assay can be described thus: radioligand competition binding assay on AT1R (nanobody stabilises agonist binding in the presence of antagonist; radioligand not named), three independent experiments; column headed Affinity. (In general: Loss of bound radioactivity is the signal in a displacement assay; it reports binding, not function.)

The target in assay [3] is human serum albumin (HSA) (human, UniProt P02768 25-609). The assay can be described thus: on-yeast binding assay: yeast-displayed nanobody, titration of HSA, n=3, EC50 from curve fit.

B1: AT110 (VHH)
VHH: QVQLQESGGGLVQAGGSLRLSCAASGNIFDADIMGWYRQAPGKERELVASITDGGSTNYADSVKGRFTISRDNAKNTVYLQMNSLKPEDTAVYYCAAIAYPDIPTYFDYDSDYFYWGQGTQVTVSS
notes: also called nanobody AT110
B1 showed an EC50 in assay [1] of 257 nM. Besides, in assay [2], the half-maximal inhibitory concentration (IC50) was 50 nM.

B2: AT110i104 (VHH)
VHH: QVQLQESGGGLVQAGGSLRLSCAASGNIFDADIMGWYRQAPGKERELVASITDGGSTNYADSVKGHFTISRDNAKNTVYLQMNSLKPEDTAVYYCAAIAYPDIPTYFDYDSDYFYWGQGTQVTVSS
notes: also called AT110 R66H; single mutation R66H
B2 registered an EC50 in assay [1] of 133 nM. Further, in assay [2], the IC50 is 31 nM.

B3: AT110i103 (VHH)
VHH: QVQLQESGGGLVQAGGSLRLSCAASGNIFDADIMGWYRQAPGKERELVASITDGGSTNYADSVKGHFTISRDNAKNTVYLQMNSLKPEDTAVYYCAAVAYPDIPTYFDYDSDHFYWGQGTQVTVSS
Take B3: the EC50 in assay [1] was found to be 20 nM. The IC50 in assay [2] is 2.5 nM.

B4: AT110 R45C (VHH)
VHH: QVQLQESGGGLVQAGGSLRLSCAASGNIFDADIMGWYRQAPGKECELVASITDGGSTNYADSVKGRFTISRDNAKNTVYLQMNSLKPEDTAVYYCAAIAYPDIPTYFDYDSDYFYWGQGTQVTVSS
notes: also called dominant mutation R45C
For the molecule B4, the EC50 in assay [1] was determined as 15 nM.

B5: AT110i101 (VHH)
VHH: QVQLQESGGGLVQAGGSLRLSCAASGNIFDADIMGWYRQAPGKERELVASITDGGSTNYADSVKGRFTISRDNAKNTVYLQMNSLKPEDTAVYYCAAVAYPDIPTYFDYDSDYFYWGQGTQVTVSS
notes: also called AT110 I98V; dominant mutation 198V (so in the source)
B5: a half-maximal response in assay [1] (EC50) required 48 nM. The IC50 in assay [2] was 15 nM.

B6: AT110i102 (VHH)
VHH: QVQLQESGGGLVQAGGSLRLSCAASGNIFDADIMGWYRQAPGKERELVASITDGGSTNYADSVKGHFTISRDNAKNTVYLQMNSLKPEDTAVYYCAAVAYPDIPTYFDYDSDYFYWGQGTQVTVSS
As to B6, the EC50 in assay [1] turned out to be 14 nM. In addition, the IC50 in assay [2] is 5 nM.

B7: AT110 Y113H (VHH)
VHH: QVQLQESGGGLVQAGGSLRLSCAASGNIFDADIMGWYRQAPGKERELVASITDGGSTNYADSVKGRFTISRDNAKNTVYLQMNSLKPEDTAVYYCAAIAYPDIPTYFDYDSDHFYWGQGTQVTVSS
notes: also called single mutation Y113H
In assay [1], B7 gave an EC50 of 35 nM. The IC50 in assay [2] came to 63 nM.

B8: Nb.b201i3 (VHH)
VHH: QVQLQESGGGLVQAGGSLRLSCAASGYISDAYYMGWYRQAPGKEREFVATITHGTNTYYADSVKGRFTISRDNAKNTVYLQMNSLKPEDTAVYYCAVLETRSYSFRYWGQGTQVTVSS
notes: also called Nb.b201 mutants
B8 yielded an EC50 in assay [3] of 5.4 nM.

B9: Nb.b201 (VHH)
VHH: QVQLQESGGGLVQAGGSLRLSCAASGYISDAYYMGWYRQAPGKEREFVATITHGTNTYYADSVKGRFTISRDNAKNTVYLQMYSLKPEDTAVYYCAVLETRSYSFRYWGQGTQVTVSS
notes: also called nanobody Nb.b201
In the case of B9, in assay [3], a half-maximal effect (EC50) was put at 18 nM.

B10: Nb.b201i1 (VHH)
VHH: QVQLQESGGGLVQAGGSLRLSCAASGYISDAYYMGWYRQAPGKERGFVATITHGTNTYYADSVKGRFTISRDNAKNTVYLQMNSLKPEDTAVYYCAVLETRSYSFRYWGQGTQVTVSS
notes: also called Nb.b201 mutants
In turn, B10 came in with an EC50 in assay [3] of 8 nM.
